Here are results for one substance from patent publication US7144576.

The target in this series is bovine transducin (UniProt P04695).
bovine transducin, sequence (P04695 2-350): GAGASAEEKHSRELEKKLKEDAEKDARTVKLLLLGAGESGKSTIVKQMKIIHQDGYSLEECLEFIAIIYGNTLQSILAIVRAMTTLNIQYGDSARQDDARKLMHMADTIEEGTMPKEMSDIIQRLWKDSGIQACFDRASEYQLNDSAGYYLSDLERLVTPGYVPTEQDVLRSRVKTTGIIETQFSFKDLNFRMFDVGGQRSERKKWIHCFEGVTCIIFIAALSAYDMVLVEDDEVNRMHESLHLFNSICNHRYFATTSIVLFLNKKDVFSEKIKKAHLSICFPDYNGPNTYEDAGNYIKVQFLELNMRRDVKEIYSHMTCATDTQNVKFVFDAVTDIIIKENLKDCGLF

For “recombinant S1 protein of native sequence from pPTXS1/1”, the “ADP-ribosyltransferase activity (autoradiogram of SDS-PAGE, [32P]NAD)” value is recorded as “The radioactive band at 39 Kd is the transducin subunit which has been ribosylated”.
